Positions count from the first letter of the chain named.
B1: Fab VH5-51_IGHD5-18*01>3_IGHJ4*01 & V3-4_IGLJ1*01 (Fab, V domains shown)
VH: EVQLVQSGAEVKKPGESLKISCKGSGYSFTSYWIGWVRQMPGKGLEWMGIIYPGDSDTRYSPSFQGQVTISADKSISTAYLQWSSLKASDTAMYYCARRGYSYGYDYFDYWGQGTLVTVSS
VL: QTVVTQEPSFSVSPGGTVTLTCGLSSGSVSTSYYPSWYQQTPGQAPRTLIYSTNTRSSGVPDRFSGSILGNKAALTITGAQADDESDYYCVLYMGSGISYVFGTGTKVTVL
notes: Germline Fab from E. coli; VH joined to CH1 with Flag/His tags (Plasmid A), VL to lambda constant region (Plasmid E)
B2: Fab VH1-46_IGHD6-6*01_IGHJ1*01 & L6_IGKJ1*01 (Fab, V domains shown)
VH: QVQLVQSGAEVKKPGASVKVSCKASGYTFTSYYMHWVRQAPGQGLEWMGIINPSGGSTSYAQKFQGRVTMTRDTSTSTVYMELSSLRSEDTAVYYCAREEYSSSSAEYFQHWGQGTLVTVSS
VL: not shown
notes: Germline Fab from E. coli; VH joined to CH1 with Flag/His tags (Plasmid A), VL to kappa constant region (Plasmid C)
B3: Fab VH6-1_IGHD3-3*01_IGHJ4*01 & V4-3_IGLJ4*01 (Fab, V domains shown)
VH: QVQLQQSGPGLVKPSQTLSLTCAISGDSVSSNSAAWNWIRQSPSRGLEWLGRTYYRSKWYNDYAVSVKSRITINPDTSKNQFSLQLNSVTPEDTAVYYCAREYYDFWSGYYTDYFDYWGQGTLVTVSS
VL: QPVLTQPTSLSASPGASARLTCTLRSGINLGSYRIFWYQQKPESPPRYLLSYYSDSSKHQGSGVPSRFSGSKDASSNAGILVISGLQSEDEADYYCMIWHSSASFVFGGGTQLIIL
notes: as for B1
B4: Fab VH1-46_IGHD3-10*01_IGHJ4*01 & L12_IGKJ1*01 (Fab, V domains shown)
VH: QVQLVQSGAEVKKPGASVKVSCKASGYTFTSYYMHWVRQAPGQGLEWMGIINPSGGSTSYAQKFQGRVTMTRDTSTSTVYMELSSLRSEDTAVYYCAREYYYGSGSYYNDYFDYWGQGTLVTVSS
VL: not shown
B5: Fab VH1-46_IGHD6-6*01_IGHJ1*01_S102A_S103P_S104F & L6_IGKJ1*01 (Fab, V domains shown)
VH: B2 VH with S102A, S103P, S104F
VL: not shown
notes: Modified anti-DLL4 Fab; kappa Plasmid C)
B6: Fab VH1-46_IGHD6-6*01>1_IGHJ1*01_S104F & L6_IGKJ1*01 (Fab, V domains shown)
VH: B2 VH with S104F
VL: not shown
notes: as for B5
B7: Fab VH1-46_IGHD6-6*01_IGHJ1*01_S102A_S103P_S104F_H111F & L6_IGKJ1*01 (Fab, V domains shown)
VH: B2 VH with S102A, S103P, S104F, H111F
VL: not shown
notes: as for B5
B8: Fab VH1-46_IGHD6-6*01_IGHJ1*01_S102A_S103P_S104F_H111Y & L6_IGKJ1*01 (Fab, V domains shown)
VH: B2 VH with S102A, S103P, S104F, H111Y
VL: not shown
notes: as for B5
B9: Fab VH1-46_IGHD6-6*01_IGHJ1*01_S102A_S103P_S104F & L6_IGKJ1*01_S31K (Fab, V domains shown)
VH: B2 VH with S102A, S103P, S104F
VL: EIVLTQSPATLSLSPGERATLSCRASQSVSKYLAWYQQKPGQAPRLLIYDASNRATGIPARFSGSGSGTDFTLTISSLEPEDFAVYYCQQRSNWPPWTFGQGTKVEIKR
notes: Modified anti-DLL4 Fab
B10: Fab VH6-1_IGHD3-3*01_IGHJ4*01 & V4-3_IGLJ4*01 (Fab, V domains shown)
VH: B3 VH
VL: B3 VL
notes: Fab from E. coli; VH joined to CH1 with Flag and His tags (Plasmid A), VL to lambda CL (Plasmid E)
B11: Fab VH1-46_IGHD6-6*01>1_IGHJ1*01_S104F & L6_IGKJ1*01 (Fab, V domains shown)
VH: B2 VH with S104F
VL: not shown
notes: Modified Fab
B12: Fab VH1-46_IGHD6-6*01_IGHJ1*01_S102A_S103P_S104F_H111F & L6_IGKJ1*01 (Fab, V domains shown)
VH: B2 VH with S102A, S103P, S104F, H111F
VL: not shown
notes: Modified Fab

What was measured:
[1] = target: T1, Recombinant Human DLL4 (delta-like protein 4) (human, UniProt Q9NR61 27-524); assay: SPR, Fab on recombinant human DLL4; standard deviation in parentheses
T1 construct: Bought (R&D Systems Cat#1506-D4/CF); also called rHuman DLL4

[2] = target: T2, Recombinant Human DLL4 (R&D Systems, Cat#1506-D4/CF) (human, UniProt Q9NR61 27-529); assay: Surface Plasmon Resonance, recombinant human DLL4
T2 construct: Bought protein; also called rHuman DLL4; delta-like protein 4

Row | Binder | Kd [1] [nM] | koff [1] [s⁻¹] | kon [1] [M⁻¹ s⁻¹] | Kd [2] [nM]
1 | B1 | 4800 | – | – | –
2 | B2 | 730 | 0.101 | 163000 | –
3 | B3 | 38000 | – | – | –
4 | B4 | 500 | 0.29 | 500000 | –
5 | B5 | 122 | 0.0492 | 405000 | –
6 | B6 | 380 | 0.19 | 500000 | –
7 | B7 | 70.6 | 0.03 | 425000 | –
8 | B8 | 93.1 | 0.0317 | 340000 | –
9 | B9 | 112 | 0.0392 | 350000 | –
10 | B10 | – | – | – | 38000
11 | B11 | – | – | – | 388
12 | B12 | – | – | – | 70.6
